The values below come from US20240400652A1.

This assay deals with SARS-CoV-2 spike with Y453F (SARS-CoV-2) (UniProt P0DTC2). Put plainly: cell-based or functional assay.

In the case of REGN10987 (antibody), the decrease in neutralization, live virus or pseudovirus (fold decrease) was 4.
